Legend:
14-3-3ω = 14-3-3ω (UniProt Q01525); assay: quartz crystal microbalance (QCM); details: reference: untreated 6His-SUMO-ACS7; sites S216,T296,S299
[1] = target: T1, AtCDPK16 (G-AtCDPK16-6His) (Arabidopsis thaliana, UniProt Q7XJR9, S274A/S541A); assay: in vitro kinase assay, […] autoradiography; assay type: biochemical; details: 50 μM ATP spiked with [γ-32P]ATP, labelled compound; AtACS7 fusion protein and peptides as phosphoacceptors; room temperature, 15 min
T1 construct: gene CPK16; recombinant from E. coli, N-terminal G (GST) and C-terminal 6His tags, about 100 kDa with tags
T1 sequence (Q7XJR9 1-571 S274A/S541A): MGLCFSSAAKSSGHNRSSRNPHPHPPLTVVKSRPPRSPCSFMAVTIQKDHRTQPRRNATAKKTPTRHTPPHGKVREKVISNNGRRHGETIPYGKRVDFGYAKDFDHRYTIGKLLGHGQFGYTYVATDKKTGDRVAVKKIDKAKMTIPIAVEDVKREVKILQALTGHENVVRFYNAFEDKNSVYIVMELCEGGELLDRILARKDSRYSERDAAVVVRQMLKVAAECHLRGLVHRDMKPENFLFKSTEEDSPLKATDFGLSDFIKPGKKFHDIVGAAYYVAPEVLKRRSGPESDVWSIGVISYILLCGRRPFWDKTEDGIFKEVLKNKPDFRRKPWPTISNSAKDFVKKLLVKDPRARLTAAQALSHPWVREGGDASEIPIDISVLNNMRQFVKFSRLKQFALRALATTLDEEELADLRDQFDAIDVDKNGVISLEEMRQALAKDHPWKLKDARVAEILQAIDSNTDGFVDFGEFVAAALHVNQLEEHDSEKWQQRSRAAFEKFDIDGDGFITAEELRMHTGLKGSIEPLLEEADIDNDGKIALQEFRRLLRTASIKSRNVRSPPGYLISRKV

[2] = target: T2, AtCDPK16 (G-AtCDPK16-6His) (Arabidopsis thaliana, UniProt Q7XJR9); assay: in vitro kinase assay, […] autoradiography; assay type: biochemical; details: 50 μM ATP spiked with [γ-32P]ATP, labelled compound; 6His-SUMO-AtACS7 as phosphoacceptor; Ca2+ dependent (shown with peptides P5-2 and P11-2); room temperature, 15 min
T2 construct: gene CPK16; recombinant from E. coli, N-terminal G (GST) and C-terminal 6His tags, about 100 kDa with tags
T2 sequence (Q7XJR9 1-571): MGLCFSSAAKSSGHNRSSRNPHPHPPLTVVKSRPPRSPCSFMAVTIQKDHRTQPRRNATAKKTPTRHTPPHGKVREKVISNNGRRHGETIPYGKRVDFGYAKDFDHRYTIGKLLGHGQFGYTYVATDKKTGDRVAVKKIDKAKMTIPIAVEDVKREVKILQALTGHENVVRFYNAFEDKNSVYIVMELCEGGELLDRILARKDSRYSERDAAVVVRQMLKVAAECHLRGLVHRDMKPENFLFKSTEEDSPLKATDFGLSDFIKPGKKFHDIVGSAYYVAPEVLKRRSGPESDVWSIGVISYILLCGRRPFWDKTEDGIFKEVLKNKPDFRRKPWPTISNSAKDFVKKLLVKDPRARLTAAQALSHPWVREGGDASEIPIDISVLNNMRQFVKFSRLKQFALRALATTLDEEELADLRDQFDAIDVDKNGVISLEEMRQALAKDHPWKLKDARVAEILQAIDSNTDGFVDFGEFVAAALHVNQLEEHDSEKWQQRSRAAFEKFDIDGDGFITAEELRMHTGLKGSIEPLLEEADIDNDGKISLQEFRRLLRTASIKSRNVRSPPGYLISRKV

[3] = target: T3, 6His-SUMO–AtACS7 recombinant protein (Arabidopsis thaliana, UniProt Q9STR4 1-447); assay: quartz crystal microbalance (QCM); AFFINIX QN μ, PBS buffer; results: G-14-3-3ω coated on the sensor and 6His-SUMO–ACS7 injected (the methods tell the reverse order); details: both partners purified
T3 construct: 1-aminocyclopropane-1-carboxylate synthase 7 (AtACS7), Arabidopsis thaliana; called the full-length ACS7 recombinant protein; The printed name puts 6His and SUMO before ACS7; also called 6His-SUMO–ACS7; SUMO–ACS7; source: E. coli, purified (Ni-NTA)
T3 sequence (looked up): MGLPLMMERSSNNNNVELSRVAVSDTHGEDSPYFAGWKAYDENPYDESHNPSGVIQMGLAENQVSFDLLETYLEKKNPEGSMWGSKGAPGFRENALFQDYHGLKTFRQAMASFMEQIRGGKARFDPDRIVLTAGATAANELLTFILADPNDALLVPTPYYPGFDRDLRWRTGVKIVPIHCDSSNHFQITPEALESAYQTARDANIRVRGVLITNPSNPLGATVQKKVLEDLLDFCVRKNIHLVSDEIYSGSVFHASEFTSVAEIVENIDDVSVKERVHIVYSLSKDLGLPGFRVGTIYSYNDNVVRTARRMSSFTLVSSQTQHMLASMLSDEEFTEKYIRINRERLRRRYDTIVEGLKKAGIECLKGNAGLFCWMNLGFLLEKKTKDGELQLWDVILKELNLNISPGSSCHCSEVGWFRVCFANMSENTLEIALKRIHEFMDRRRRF

[4] = target: T4, phosphorylated 6His-SUMO–ACS7 (phosphorylated by CDPK16 in vitro in advance) (Arabidopsis thaliana, UniProt Q9STR4 1-447, phosphorylated by CDPK16 in vitro; the sites that the paper identifies with fusion peptides are Ser216, Thr296 and Ser299); assay: as above; details: both partners purified
T4 construct: 1-aminocyclopropane-1-carboxylate synthase 7 (AtACS7), Arabidopsis thaliana; the full-length ACS7 recombinant protein; source: E. coli, purified (Ni-NTA), then phosphorylated by CDPK16 in vitro
T4 sequence (looked up): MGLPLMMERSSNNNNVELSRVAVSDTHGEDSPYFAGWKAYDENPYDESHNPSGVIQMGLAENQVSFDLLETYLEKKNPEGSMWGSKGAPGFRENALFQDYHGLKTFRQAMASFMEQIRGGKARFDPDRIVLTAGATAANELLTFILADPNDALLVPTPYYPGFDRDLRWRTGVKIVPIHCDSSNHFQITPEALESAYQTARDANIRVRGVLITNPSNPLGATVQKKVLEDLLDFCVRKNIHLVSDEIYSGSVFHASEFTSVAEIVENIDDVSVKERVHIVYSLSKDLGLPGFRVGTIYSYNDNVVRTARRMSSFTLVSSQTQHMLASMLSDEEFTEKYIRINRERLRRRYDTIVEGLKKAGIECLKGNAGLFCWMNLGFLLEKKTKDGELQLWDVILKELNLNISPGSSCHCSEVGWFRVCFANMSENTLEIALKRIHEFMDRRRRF

In the case of “AtACS7 (ACS7, type III ACC synthase) (from UniProt Q9STR4) 6His-SUMO-ACS7 phosphorylated by CDPK16 in vitro”, the KD (14-3-3ω) is reported as “same; reference 9.29±1.99×10–9”.

For `Nc1ncnc2c1ncn2[C@@H]1O[C@H](COP(=O)(O)OP(=O)(O)OP(=O)(O)O)[C@@H](O)[C@H]1O` [ATP], the “in vitro kinase assay, 32P autoradiography” value [1] was “autophosphorylation of the mutated recombinant protein (G-CDPK16-6His MT) was greatly reduced” and the “in vitro kinase assay, 32P autoradiography” value [2] was “CDPK16 can phosphorylate the recombinant protein 6His-SUMO–AtACS7 in vitro”.

B1: G-14-3-3ω recombinant protein (GST-tagged 14-3-3ω) (natural protein, Arabidopsis, UniProt Q01525 1-259, looked up)
chain: MASGREEFVYMAKLAEQAERYEEMVEFMEKVSAAVDGDELTVEERNLLSVAYKNVIGARRASWRIISSIEQKEESRGNDDHVTAIREYRSKIETELSGICDGILKLLDSRLIPAAASGDSKVFYLKMKGDYHRYLAEFKTGQERKDAAEHTLAAYKSAQDIANAELAPTHPIRLGLALNFSVFYYEILNSPDRACNLAKQAFDEAIAELDTLGEESYKDSTLIMQLLRDNLTLWTSDMQDDAADEIKEAAAPKPTEEQQ
notes: 14-3-3ω (14-3-3 omega), Arabidopsis; The printed name puts G (GST) before 14-3-3ω; also called 14-3-3ω protein; source: E. coli, purified (GST beads, glutathione elution)
B1 was tested, and the Kd [3] was 9.29 nM and the Kd [4] was 5.05 nM.

— article PMC3808318, “A type III ACC synthase, ACS7, is involved in root gravitropism in Arabidopsis thaliana” (Journal of Experimental Botany, 2013)
